# Results published in US20250179176A1, “ANTI-TIGIT ANTIBODIES AND USES OF THE SAME” (ARCUS BIOSCIENCES, INC., priority 2022, published 2025).
# Entries after “also recorded” stand apart in the source; their conditions may differ.
# B1: domvanalimab: anti-TIGIT antibody with engineered IgG1 Fc, reduced FcγR binding; heavy chain SEQ ID NO: 12, light chain SEQ ID NO: 13 (antibody)
# heavy: EVQLVESGGGLVQPGGSLRLSCAASGFTFSNFGMHWVRQAPGKGLEWVAFISSGSSSIYYADTVKGRFTISRDNAKNSLYLQMNSLRAEDTAVYYCARMRLDYYAMDYWGQGTMVTVSSASTKGPSVFPLAPSSKSTSGGTAALGCLVKDYFPEPVTVSWNSGALTSGVHTFPAVLQSSGLYSLSSVVTVPSSSLGTQTYICNVNHKPSNTKVDKKVEPKSCDKTHTCPPCPAPEAAGGPSVFLFPPKPKDTLMISRTPEVTCWVDVSHEDPEVKFNWYVDGVEVHNAKTKPREEQYNSTYRWSVLTVLHQDWLNGKEYKCKVSNKALPAPIEKTISKAKGQPREPQVYTLPPSRDELTKNQVSLTCLVKGFYPSDIAVEWESNGQPENNYKTTPPVLDSDGSFFLYSKLTVDKSRWQQGNVFSCSVMHEALHNHYTQKSLSLSPGK
# light: DIQMTQSPSSLSASVGDRVTITCRASKSISKYLAWYQQKPGKAPKLLIYSGSTLQSGVPSRFSGSGSGTDFTLTISSLQPEDFATYYCQQHNEYPWTFGGGTKVEIKRTVAAPSVFIFPPSDEQLKSGTASWCLLNNFYPREAKVQWKVDNALQSGNSQESVTEQDSKDSTYSLSSTLTLSKADYEKHKVYACEVTHQGLSSPVTKSFNRGEC
# Key:
# [1] = system: CD4+ T cells, CD8+ T cells, and Tregs; experiment: Peripheral T cell absolute counts and frequencies (Trucount, flow cytometry); format: in vivo, human; details: humans
# Method: White blood cell counts for 11 patients have been followed for up to 85 days of treatment. See Table 17 for additional patient details. Cell counts were assessed in pre- and post-dose whole blood patient samples using commercially available Trucount tubes (BD Biosciences). CD45, CD3, CD4, CD8, CD25, and CD127 antibodies were used to detect peripheral blood T cells and Tregs using flow cytometry. The antibody cocktail and […] of whole blood was added to Trucount tubes, vortexed, and incubated for 15 minutes at room temperature. The stained whole blood was lysed using 900µl of 1×BD FACs Lyse solution followed by vortexing, and incubation for 15 minutes at room temperature. Absolute counts were calculated as detailed in the Trucount technical data sheet. Briefly, the absolute count of a cell population (A) was obtained by dividing the number of positive cells events (X) by the number of bead events (Y), and then multiplying by the BD Trucount bead concentration (N/V, where N is the number of beads per test and V is the test volume). A=X/Y×N/V. Absolute cell count was then reported per μl of whole blood (WB).
# Absolute cell counts were not measured in all patients due to limited sample collection. […] Frequencies of different populations were determined relative to a parent population and each timepoint was normalized to baseline (C1D1 predose) to compute fold change.
# human FcγR1 = human FcγR1 (Homo sapiens, UniProt P12314); experiment: ELISA binding of domvanalimab to FcγR; details: up to 1 μM, vs human IgG1 control
# Method: Antibody-dependent cell mediated cytotoxicity (ADCC) is mediated by the antibody Fc domain binding to a FcγR. […] Human IgG1 was used as a positive control and buffer containing no antibody was used as a negative control.
# Briefly, ELISA plate coating solution was prepared by diluting human Fc-gamma receptors in PBS to a final concentration of 1 μg/mL (FcγR1) or 4 μg/mL (Fcγ R2A, 2B, 3A and 3B). 30 μL of coating solution was added to each well of the test plates, and the ELISA plates were then incubated overnight at 4° C. to facilitate receptor binding. The following day, ELISA plates were washed four times with 80 μL wash buffer (1×PBS+0.05% Tween-20) per well, prior to blocking with 80 μL blocking buffer (1×PBS+2% BSA) per well at room temperature for 2 hours.
# Plates were then incubated for an hour prior to removal of well contents by aspiration followed by four washes with wash buffer. 30 μL of anti-human IgG HRP conjugate at 1:2500 dilution in antibody buffer was added to each of the washed wells. Plates were further incubated at room temperature for an additional 30 minutes. […] Luminescent signals were captured using an Envision Multimode Reader (Perkin Elmer) system approximately 10 minutes after substrate addition.
# Chain of human FcγR1 (P12314 16-374): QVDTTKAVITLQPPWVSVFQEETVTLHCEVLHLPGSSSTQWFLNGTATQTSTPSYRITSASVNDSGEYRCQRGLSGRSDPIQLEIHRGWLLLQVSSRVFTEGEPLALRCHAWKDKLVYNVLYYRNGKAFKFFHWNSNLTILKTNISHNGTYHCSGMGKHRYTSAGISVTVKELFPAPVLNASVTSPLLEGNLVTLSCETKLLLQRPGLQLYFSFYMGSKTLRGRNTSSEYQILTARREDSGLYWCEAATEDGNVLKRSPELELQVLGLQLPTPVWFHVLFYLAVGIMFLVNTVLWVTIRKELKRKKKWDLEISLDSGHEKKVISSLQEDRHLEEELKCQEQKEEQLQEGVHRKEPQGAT
molecule,measurement,setting,value
B1,depletion of peripheral T cells,[1],does not deplete
same,binding to human FcγR1,human FcγR1,no significant binding; also recorded: does not bind
